Common to all, as to assay: MST
For test [1], the target named is Sos-C-Tail-6 truncated peptide (without GST) (UniProt Q07889).
For test [2], the target named is Sos-C-Tail-8 truncated peptide (without GST) (UniProt Q07889).
Test [3] deals with Sos-C-Tail-5 truncated peptide (without GST) (UniProt Q07889).

What is called Kd is the equilibrium constant for the complex coming apart. A lower Kd goes with higher affinity.

B1: His-tagged Grb3-3 N-terminal SH3 and SH2 domain (NSH3SH2Δ40) (domain or fragment)
chain: MEAIAKYDFKATADDELSFKRGDILKVLNEECDQNWYKAELNGKDGFIPKNYIEMKPHPFGNDVQHFKVLRDGAGKYFLWVVKFNSLNELVDYHRSTSVSRNQQIFLRDIE
modifications: Atto488 NHS ester label, 1:1 protein:dye
As to B1, the Kd in test [1] stood at 3.41 µM; in test [2] it was 71.1 µM; in test [3], 2360 nM.

The values are drawn from paper PMC9519967 (2022).
